Measurements: paper PMC9272835

Target: trastuzumab
Test: BLI; trastuzumab (5 µg/mL) captured on anti-human IgG Fc (AHC) biosensors; serial dilutions of the masks or HER2 in solution; DPBS, 0.1% BSA, 0.02% Tween 20; global fit to a 1:1 model

B1: dAb (VHH)
VHH: EVQLVESGGGLVQAGDSLTLSCAASGRTFSSVAMGWFRQAPGKERKFVANISWNGDSTYYTDSVKGRFTISRDNAKNTVYLQMSSLKPEDTAVYYCAADVRWTGDGHRADYWGQGTQVTVSS
B1 showed a Kd of 0.192 nM, a half-life of dissociation of 3.3 h and a koff of 5.76e-05 s⁻¹.
